Assay results from patent publication US6518401B2, “Tumor necrosis factor stimulated gene 6 (TSG-6) protein” (New York University, priority 1991, dated 2003).

Assays:
[1] = target: T1, IαI purified from human serum (Homo sapiens, UniProt P02760+P19823); assay: TSG-6/IαI complex formation with purified proteins (SDS-PAGE, Western blot); assay type: binding; settings: preincubated 16 hrs. at 37° C. with chondroitinase, then mixed with the untreated partner protein
T1 construct: IαI is a complex protein in which the bikunin chain is linked to HC1 and HC2; supposed to determine the cleavage site for the C-terminal propeptide; from tissue; host or cells: human serum
Experimental: Purified recombinant TSG-6 protein (lane 1) and IαI purified from human serum (lane 2) were mixed and incubated for 2 min. (lane 3), 5 min. (lane 4), 10 min. (lane 5), 15 min. (lane 6), 30 min. (lane 7), or for 60 min. (lane 8) at 37° C. or for 60 min. at 0° C. (lane 9). The reaction mixtures were then separated by SDS-PAGE and subjected to Western blot analysis with rabbit anti-TSG-6 serum.
Four micrograms of purified IαI and 3 μg of purified TSG-6 protein were incubated separately for 16 hrs. at 37° C. in the absence or presence of 30 milliunits of chondroitin sulfate ABC lyase. […]
Analysis of TSG-6 Binding to Carrier Protein. To determine the presence of TSG-6 binding protein, samples to be analyzed were mixed with an equal volume of TSG-6-containing serum-free supernatants of TN-5 B insect cells infected with recombinant Baculovirus and incubated at 37° C. for 30-60 min. (Purified TSG-6 protein was used in some experiments, as indicated.) Thereafter, the mixtures were analyzed for the presence of the 120-kDa complex by Western blotting with purified rabbit antibody to TSG-6 as described earlier (Wisniewski et al, J. Immunol. 151:6593-6601 (1993)). […]
Rapid Complex Formation between Recombinant TSG-6 Protein and IαI Purified from Human Serum at 37° C. The 120kDa TSG-6/IαI complex formed readily when purified TSG-6 protein and purified IαI were incubated together at 37° C. but not at 0° C. […]

TSG-12 mRNA = assay: Northern blot analysis of TSG mRNA levels in FS-4 cells; assay type: cell-based, human; settings: growth arrested FS-4 cells, 2 h; TNF 20 ng/ml, CHX 10 ug/ml, IFN-β 500 U/ml, IFN-γ 100 U/ml, IL-1-α 1 ng/ml, EGF 25 ng/ml, TGF-β 2 ng/ml, poly(I).poly(C) 50 ug/ml, TPA 100 ng/ml, A23187 1 uM, forskolin 10 uM, dBcAMP 100 uM, IBMX 100 uM
Experimental: (§1) The human diploid FS-4 foreskin fibroblast cell line (Vilcek, J. et al, Proc. Natl. Acad. Sci. USA 70:3909-3913 (1973)) was used at passage level 15 in all experiments. FS-4 cells were grown in Eagle minimal essential medium (E-MEM) supplemented with 6 mM HEPES, 3 mM Tricine, 50 μg/ml gentamicin, and 5% heat inactivated (56° C., 30 min) fetal bovine serum (FBS; GIBCO Laboratories, Grand Island, N.Y.). For experiments, 4×10^6 cells were seeded in 175 cm^2 Falcon flasks, incubated at 37° C., and allowed to grow to confluence over 6 days. The confluent monolayers were washed once with phosphate buffered saline and replenished with E-MEM containing […] FBS. The cultures were incubated in this medium for another 72 h at 37° C. to let the cells become quiescent and then treated with the appropriate agents, as specified herein.
(§2) Cytoplasmic RNA was fractionated on a 1% agarose gel containing formaldehyde and blotted onto Zeta-probe blotting membranes (Bio-Rad Laboratories, Richmond, Calif.). Cytoplasmic RNA was loaded at 10 μg/lane. Prehybridization and hybridization of Northern blots were performed as described (Lin, J.-X. et al, supra). Filters were probed with 32P-labeled cDNA insert from recombinant M13 clones and/or with 32P-labeled internal reference pHe7 insert. Northern blots were quantified with a laser densitometer.
(§3) The increase in mRNA levels ranged from about 3-fold (TSG-21) to over 100-fold (TSG-6 and TSG-8).
(§4) Table 3 provides a summary of a large number of experiments in which levels of mRNAs corresponding to the 8 distinct TSG cDNAs were determined in FS-4 cells exposed to various agents by Northern blot analysis. Three of the mRNAs (corresponding to TSG-8, TSG-12 and TSG-14) were inducible by the protein synthesis inhibitor, cycloheximide (CHX). […] In contrast, induction of the remaining 3 mRNAs by TNF was inhibited or reduced in the presence of CHX. Five of the mRNAs were inducible by IFN-β, but only two of these responded to […]. Simultaneous treatment with IFN-β reduced inducibility of TSG-1 (=IL-8) mRNA by TNF, but increased the inducibility of TSG-6 and TSG-37 mRNAs. All mRNAs were inducible by IL-1 and by the doublestranded RNA poly(I)-poly(C) or the phorbol ester 12-O-tetradecanoyl phorbol 13-acetate (TPA), but the efficiency of induction by these agents varied. Epidermal growth factor (EGF) was moderately efficient in increasing TSG-21 (=collagenase) and TSG-27 (=stromelysin) mRNA levels, and weakly stimulated several other mRNAs. PDGF and transforming growth factor-β (TGF-β) were only weakly effective, as were dibutyryl cyclic AMP (dBcAMP) and the phosphodiesterase inhibitor, isobutyl methyl xanthine (IBMX).

TSG-1 (IL-8) mRNA = assay: as above; assay type: cell-based, human; settings: growth arrested FS-4 cells, 2 h; TNF 20 ng/ml, CHX 10 ug/ml, IFN-β 500 U/ml, IFN-γ 100 U/ml, IL-1-α 1 ng/ml, EGF 25 ng/ml, TGF-β 2 ng/ml, poly(I).poly(C) 50 ug/ml, TPA 100 ng/ml, A23187 1 uM, forskolin 10 uM, dBcAMP 100 uM, IBMX 100 uM
Experimental: as §1, §2, §3, §4

TSG-8 (MCAF) mRNA = assay: as above; assay type: cell-based, human; settings: growth arrested FS-4 cells, 2 h; TNF 20 ng/ml, CHX 10 ug/ml, IFN-β 500 U/ml, IFN-γ 100 U/ml, IL-1-α 1 ng/ml, EGF 25 ng/ml, TGF-β 2 ng/ml, poly(I).poly(C) 50 ug/ml, TPA 100 ng/ml, A23187 1 uM, forskolin 10 uM, dBcAMP 100 uM, IBMX 100 uM
Experimental: as §1, §2, §3, §4

[2] = tested on: TSG-27 (Stromelysin) mRNA; assay: as above; assay type: cell-based, human; settings: growth arrested FS-4 cells, 16 h of treatment; TNF 20 ng/ml, CHX 10 ug/ml, IFN-β 500 U/ml, IFN-γ 100 U/ml, IL-1-α 1 ng/ml, EGF 25 ng/ml, TGF-β 2 ng/ml, poly(I).poly(C) 50 ug/ml, TPA 100 ng/ml, forskolin 10 uM, IBMX 100 uM
Experimental: as §1, §2, §3, §4

TSG-37 (MT-II) mRNA = assay: as above; assay type: cell-based, human; settings: growth arrested FS-4 cells, 2 h; TNF 20 ng/ml, CHX 10 ug/ml, IFN-β 500 U/ml, IFN-γ 100 U/ml, IL-1-α 1 ng/ml, EGF 25 ng/ml, TGF-β 2 ng/ml, poly(I).poly(C) 50 ug/ml, TPA 100 ng/ml, A23187 1 uM, forskolin 10 uM, dBcAMP 100 uM, IBMX 100 uM
Experimental: as §1, §2, §3, §4

TSG-14 mRNA = assay: as above; assay type: cell-based, human; settings: growth arrested FS-4 cells, 2 h; TNF 20 ng/ml, CHX 10 ug/ml, IFN-β 500 U/ml, IFN-γ 100 U/ml, IL-1-α 1 ng/ml, EGF 25 ng/ml, TGF-β 2 ng/ml, poly(I).poly(C) 50 ug/ml, TPA 100 ng/ml, A23187 1 uM, forskolin 10 uM, dBcAMP 100 uM, IBMX 100 uM
Experimental: as §1, §2, §3, §4

[3] = tested on: TSG-21 (Collagenase) mRNA; assay: as above; assay type: cell-based, human; settings: growth arrested FS-4 cells, 16 h of treatment; TNF 20 ng/ml, CHX 10 ug/ml, IFN-β 500 U/ml, IFN-γ 100 U/ml, IL-1-α 1 ng/ml, EGF 25 ng/ml, TGF-β 2 ng/ml, poly(I).poly(C) 50 ug/ml, TPA 100 ng/ml, forskolin 10 uM, IBMX 100 uM
Experimental: as §1, §2, §3, §4

TSG-6 mRNA = assay: as above; assay type: cell-based, human; settings: growth arrested FS-4 cells, 2 h; TNF 20 ng/ml, CHX 10 ug/ml, IFN-β 500 U/ml, IFN-γ 100 U/ml, IL-1-α 1 ng/ml, EGF 25 ng/ml, TGF-β 2 ng/ml, poly(I).poly(C) 50 ug/ml, TPA 100 ng/ml, A23187 1 uM, forskolin 10 uM, dBcAMP 100 uM, IBMX 100 uM
Experimental: as §1, §2, §3, §4

T1 sequence (P98066 18-277 partner, one chain of several): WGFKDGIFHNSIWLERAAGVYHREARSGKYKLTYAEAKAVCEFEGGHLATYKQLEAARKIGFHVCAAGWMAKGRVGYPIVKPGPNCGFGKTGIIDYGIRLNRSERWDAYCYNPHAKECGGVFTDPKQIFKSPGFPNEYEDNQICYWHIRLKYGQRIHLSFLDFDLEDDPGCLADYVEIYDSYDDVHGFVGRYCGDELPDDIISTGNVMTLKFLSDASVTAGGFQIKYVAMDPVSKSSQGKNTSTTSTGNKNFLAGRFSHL

B1: IαI: inter-α-inhibitor purified from human serum; the TSG-6 binding protein (protein)
chain 1: AVLPQEEEGSGGGQLVTEVTKKEDSCQLGYSAGPCMGMTSRYFYNGTSMACETFQYGGCMGNGNNFVTEKECLQTCRTVAACNLPIVRGPCRAFIQLWAFDAVKGKCVLFPYGGCQGNGNKFYSEKECREYCGVPGDGDEELLRFSN
chain 2: SLPGESEEMMEEVDQVTLYSYKVQSTITSRMATTMIQSKVVNNSPQPQNVVFDVQIPKGAFISNFSMTVDGKTFRSSIKEKTVGRALYAQARAKGKTAGLVRSSALDMENFRTEVNVLPGAKVQFELHYQEVKWRKLGSYEHRIYLQPGRLAKHLEVDVWVIEPQGLRFLHVPDTFEGHFDGVPVISKGQQKAHVSFKPTVAQQRICPNCRETAVDGELVVLYDVKREEKAGELEVFNGYFVHFFAPDNLDPIPKNILFVIDVSGSMWGVKMKQTVEAMKTILDDLRAEDHFSVIDFNQNIRTWRNDLISATKTQVADAKRYIEKIQPSGGTNINEALLRAIFILNEANNLGLLDPNSVSLIILVSDGDPTVGELKLSKIQKNVKENIQDNISLFSLGMGFDVDYDFLKRLSNENHGIAQRIYGNQDTSSQLKKFYNQVSTPLLRNVQFNYPHTSVTDVTQNNFHNYFGGSEIVVAGKFDPAKLDQIESVITATSANTQLVLETLAQMDDLQDFLSKDKHADPDFTRKLWAYLTINQLLAERSLAPTAAAKRRITRSILQMSLDHHIVTPLTSLVIENEAGDERMLADAPPQDPSCCSGALYYGSKVVPDSTPSWANPSPTPVISMLAQGSQVLESTPPPHVMRVEND
chain 3: SKSSEKRQAVDTAVDGVFIRSLKVNCKVTSRFAHYVVTSQVVNTANEAREVAFDLEIPKTAFISDFAVTADGNAFIGDIKDKVTAWKQYRKAAISGENAGLVRASGRTMEQFTIHLTVNPQSKVTFQLTYEEVLKRNHMQYEIVIKVKPKQLVHHFEIDVDIFEPQGISKLDAQASFLPKELAAQTIKKSFSGKKGHVLFRPTVSQQQSCPTCSTSLLNGHFKVTYDVSRDKICDLLVANNHFAHFFAPQNLTNMNKNVVFVIDISGSMRGQKVKQTKEALLKILGDMQPGDYFDLVLFGTRVQSWKGSLVQASEANLQAAQDFVRGFSLDEATNLNGGLLRGIEILNQVQESLPELSNHASILIMLTDGDPTEGVTDRSQILKNVRNAIRGRFPLYNLGFGHNVDFNFLEVMSMENNGRAQRIYEDHDATQQLQGFYSQVAKPLLVDVDLQYPQDAVLALTQNHHKQYYEGSEIVVAGRIADNKQSSFKADVQAHGEGQEFSITCLVDEEEMKKLLRERGHMLENHVERLWAYLTIQELLAKRMKVDREERANLSSQALQMSLDYGFVTPLTSMSIRGMADQDGLKPTIDKPSEDSPPLEMLGPRRTFVLSALQPSPTHSSSNTQRLPDRVTGVDTD
ability to form the TSG-6/IαI complex after pretreatment of the protein with chondroitin sulfate ABC lyase [1]: no longer able to form a complex

B2: IL-1: E. coli-derived recombinant human IL-1α (protein, UniProt P01583 113-271, looked up)
Interleukin-1 alpha: SAPFSFLSNVKYNFMRIIKYEFILNDALNQSIIRANDQYLTAAALHNLDEAVKFDMGAYKSSKDDAKITVILRISKTQLYVTAQDEDQPVLLKEMPEIPKTITGSETNLLFFWETHGTKNYFTSVAHPNLFIATKQDYWVCLAGGPPSITDFQILENQA
modifications: E. coli recombinant
notes: E. coli-derived recombinant human IL-1α
Relative Increase in mRNA Level TSG-12 (TSG-12 mRNA): ++++
Relative Increase in mRNA Level TSG-1 (IL-8) (TSG-1 (IL-8) mRNA): +
Relative Increase in mRNA Level TSG-8 (MCAF) (TSG-8 (MCAF) mRNA): ++
Relative Increase in mRNA Level TSG-27 (Stromelysin) [2]: ++
Relative Increase in mRNA Level TSG-37 (MT-II) (TSG-37 (MT-II) mRNA): ++
Relative Increase in mRNA Level TSG-14 (TSG-14 mRNA): ++++
Relative Increase in mRNA Level TSG-21 (Collagenase) [3]: ++
Relative Increase in mRNA Level TSG-6 (TSG-6 mRNA): +
